The results in this text go back to article PMC2133194.

Where two headings read alike, the source gives them in different places.

What all share (experiment): flow cytometry on cells
Assay [1] addresses human CD34 on CHO/FTVII/C2GnT cells cotransfected with HEC-GlcNAc6ST (human) (UniProt P28906).
In assay [2] the target is human CD34 on CHO/FTVII/C2GnT cells cotransfected with KSGal6ST (human) (UniProt P28906).
Assay [3] has as its target human CD34 on CHO/FTVII/C2GnT cells cotransfected with KSGal6ST and HEC-GlcNAc6ST (human) (UniProt P28906).
Assay [4] has as its target human CD34 on CHO/FTVII/C2GnT cells cotransfected with HEC-GlcNAc6ST (human) (UniProt P28906). The source holds these as a separate data set.
Assay [5] addresses human CD34 on CHO/FTVII/C2GnT cells cotransfected with KSGal6ST (human) (UniProt P28906). The source holds these as a separate data set.
The target in assay [6] is human CD34 on CHO/FTVII/C2GnT cells cotransfected with KSGal6ST and HEC-GlcNAc6ST (human) (UniProt P28906). The source holds these as a separate data set.

On to “L-selectin/IgM chimera (from UniProt P18337 39-332) (Fc fusion)”, for which, in assay [1], the MFI of L-sel/IgM staining (KSGal6ST 0 ug, HEC-GlcNAc6ST 1.0 ug) stood at 114 MFI and the MFI of L-sel/IgM staining (KSGal6ST 0 ug, HEC-GlcNAc6ST 1.5 ug) was determined as 163 MFI. In assay [2], this substance showed an MFI of L-sel/IgM staining (KSGal6ST 1.0 ug, HEC-GlcNAc6ST 0 ug) of 364 MFI and an MFI of L-sel/IgM staining (KSGal6ST 1.5 ug, HEC-GlcNAc6ST 0 ug) of 391 MFI. In assay [3], this substance had an MFI of L-sel/IgM staining (KSGal6ST 0.5 ug, HEC-GlcNAc6ST 0.5 ug) of 935 MFI; an MFI of L-sel/IgM staining (KSGal6ST 0.5 ug, HEC-GlcNAc6ST 1.0 ug) of 830 MFI; an MFI of L-sel/IgM staining (KSGal6ST 1.0 ug, HEC-GlcNAc6ST 0.5 ug) of 917 MFI. For the same substance, in assay [4], the MFI of L-sel/IgM staining (KSGal6ST 0 ug, HEC-GlcNAc6ST 1.0 ug) stood at 60 MFI. The substance further came in with an MFI of L-sel/IgM staining (KSGal6ST 1.0 ug, HEC-GlcNAc6ST 0 ug) in assay [5] of 197 MFI. For the same substance, in assay [6], the MFI of L-sel/IgM staining (KSGal6ST 0.5 ug, HEC-GlcNAc6ST 0.5 ug) was determined as 836 MFI.
